No end group written: not given here.

The format of this series is physicochemical. How it is done: The structure of the HKC2 was characterized by HPLC and mass spectroscopy, and a major peak at retention time at 8.053 min with a purity 90.0% was observed by RPHPLC. In the ESI-MS spectrum (FIG. 2B), a molecular ion peak was observed as double charged ion [M+2H]^2+. Similarly, triple charged, 4+ and 5+ species were also observed. It provided a molecular weight of 2683 Da, which is in good agreement with the theoretical value. […] This is a plus for its formulation with the siRNA in aqueous medium.

As to “K(HHHK)4CSSC (KHHHKHHHKHHHKHHHKCSSC; also: branched peptide, cross-linked through intermolecular disulfide bonds between cysteines into polymer (HKC2))”, the solubility in water result was “readily soluble in water”.
